Source: article PMC8086144, “A novel peptide antagonist of the human growth hormone receptor” (The Journal of Biological Chemistry, 2021)

Legend:
[1] = Stability of hGH and pegvisomant in human serum (Western blot); type: in vitro ADME; conditions: RPMI with 25% (v/v) heat-inactivated human AB serum, 37 °C, 25 μg/ml protein, SDS-PAGE/Western blot densitometry, average of three experiments
Experimental: (§1) The samples were then incubated at 95 °C for 5 min before being cooled on ice and stored at −80 °C. […] Following separation, the proteins were transferred to polyvinylidine difluoride membranes and subjected to Western blot analysis (vide infra). The fraction of intact protein was quantified by measuring the integrated density of each band contained within regions of the gel corresponding to “intact” or “degraded” proteins. […] These reactions were allowed to incubate at 37 °C for up to 8 h, with samples removed at selected timepoints for analysis. Following incubation, the samples were either mixed with 5× Laemmli loading buffer and subjected to SDS-PAGE for Western blot analysis (Fig. S5) or directly injected onto a C18 reversed-phase column for analysis by HPLC as described above for the S1H peptide (Fig. S4).

[2] = biological target: T1, trypsin (bovine pancreas) (Bos taurus, UniProt P00760); assay: Trypsin degradation of hGH and pegvisomant (HPLC and Western blot); type: in vitro ADME; conditions: 4 μg/ml trypsin in digestion buffer pH 7.8, 37 °C, up to 8 h, 25 μg/ml protein
T1 construct: purchased Sigma-Aldrich; host or cells: bovine pancreas
T1 sequence (P00760 24-246): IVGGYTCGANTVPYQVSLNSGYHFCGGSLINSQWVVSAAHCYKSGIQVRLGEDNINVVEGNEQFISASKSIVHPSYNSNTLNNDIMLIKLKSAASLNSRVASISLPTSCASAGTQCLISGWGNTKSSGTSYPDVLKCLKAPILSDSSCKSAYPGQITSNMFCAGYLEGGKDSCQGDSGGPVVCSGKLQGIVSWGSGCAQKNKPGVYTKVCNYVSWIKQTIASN
Experimental: as §1

hPRLR = biological target: T2, hPRLR (Homo sapiens, UniProt P16471); assay: hGH-mediated pSTAT5 in T84 cells, Western blot; type: cell-based; conditions: 50 nM inhibitor with 2.5 nM hGH, 20 min
T2 construct: T84 cells express high levels of hPRLR relative to hGHR (>1300:1); host or cells: T84 (human colon cancer), MALME-3M (human melanoma)
T2 sequence (P16471 25-622): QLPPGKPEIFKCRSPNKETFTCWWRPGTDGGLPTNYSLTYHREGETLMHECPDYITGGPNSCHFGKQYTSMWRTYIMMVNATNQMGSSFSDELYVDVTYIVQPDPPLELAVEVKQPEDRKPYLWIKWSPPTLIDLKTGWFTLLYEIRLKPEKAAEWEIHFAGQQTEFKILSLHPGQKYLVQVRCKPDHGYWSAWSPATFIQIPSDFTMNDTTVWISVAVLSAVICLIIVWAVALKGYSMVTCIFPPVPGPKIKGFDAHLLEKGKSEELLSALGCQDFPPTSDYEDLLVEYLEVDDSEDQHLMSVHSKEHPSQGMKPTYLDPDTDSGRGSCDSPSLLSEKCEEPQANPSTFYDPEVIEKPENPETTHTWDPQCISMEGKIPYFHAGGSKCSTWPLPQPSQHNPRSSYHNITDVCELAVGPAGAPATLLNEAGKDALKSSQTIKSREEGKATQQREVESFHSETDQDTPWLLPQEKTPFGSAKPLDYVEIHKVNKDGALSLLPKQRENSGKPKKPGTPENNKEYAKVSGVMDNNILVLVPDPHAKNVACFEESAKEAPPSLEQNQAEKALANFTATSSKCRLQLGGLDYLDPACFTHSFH
Experimental: SK-MEL-28, MALME-3M, and T84 cells were grown and maintained in Eagle's Minimal Essential Medium. IM9 and L cells were grown in RPMI-1640 media and Dulbecco's modified Eagle's medium, respectively. All growth media was supplemented with 10% fetal bovine serum and 1× antibiotic-antimycotic […] solution. Cells were grown at 37 °C under a 5% CO2 atmosphere in a humidified incubator, and growth media was replaced every 48 h during incubation. No hGH was present in or added to the growth media unless specifically indicated. […]
Following treatment, the cells were harvested at the indicated time points, and the total protein was extracted. […] Sample protein concentration was quantified using a Bradford assay with bovine serum albumin as the protein standard. Absorbance at 595 nm was measured using a Spectramax 250 multimode plate reader (Molecular Devices) and processed using SoftmaxPro v4.7.1 software.
Cytosolic fractions from treated cells were thawed on ice, and 80 μg protein was loaded onto polyacrylamide gels for separation by SDS-PAGE. […] Chemiluminescence signals were detected using a GelDoc (BioRad) fluorescence imager. […] Percent inhibition was then measured by subtracting the pSTAT5 band intensity in each lane from the pSTAT5 band intensity of hGH-treated samples. […]

[3] = biological target: T3, human prolactin receptor (human (endogenous in T84, MALME-3M)) (UniProt P16471)
T3 sequence: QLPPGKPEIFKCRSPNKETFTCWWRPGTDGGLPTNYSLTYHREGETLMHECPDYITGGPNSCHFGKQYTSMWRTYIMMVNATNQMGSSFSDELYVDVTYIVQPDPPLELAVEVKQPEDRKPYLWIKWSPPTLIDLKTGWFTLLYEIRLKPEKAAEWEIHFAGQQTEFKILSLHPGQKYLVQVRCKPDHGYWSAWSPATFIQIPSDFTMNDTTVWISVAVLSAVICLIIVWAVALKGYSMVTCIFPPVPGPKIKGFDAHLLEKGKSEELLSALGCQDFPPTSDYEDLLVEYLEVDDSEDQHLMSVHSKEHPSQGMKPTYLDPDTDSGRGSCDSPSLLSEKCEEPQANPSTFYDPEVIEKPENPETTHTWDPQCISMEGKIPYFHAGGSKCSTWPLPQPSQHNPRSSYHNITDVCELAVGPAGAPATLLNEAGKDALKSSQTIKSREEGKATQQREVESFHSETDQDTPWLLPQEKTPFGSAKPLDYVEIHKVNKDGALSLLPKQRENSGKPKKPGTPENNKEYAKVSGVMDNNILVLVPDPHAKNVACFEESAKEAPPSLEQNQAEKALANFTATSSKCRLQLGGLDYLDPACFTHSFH

[4] = biological target: human growth hormone receptor (human (endogenous in SK-MEL-28, MALME-3M, IM9)) (UniProt P10912)
human growth hormone receptor (human (endogenous in SK-MEL-28, MALME-3M, IM9)), sequence (P10912 19-638): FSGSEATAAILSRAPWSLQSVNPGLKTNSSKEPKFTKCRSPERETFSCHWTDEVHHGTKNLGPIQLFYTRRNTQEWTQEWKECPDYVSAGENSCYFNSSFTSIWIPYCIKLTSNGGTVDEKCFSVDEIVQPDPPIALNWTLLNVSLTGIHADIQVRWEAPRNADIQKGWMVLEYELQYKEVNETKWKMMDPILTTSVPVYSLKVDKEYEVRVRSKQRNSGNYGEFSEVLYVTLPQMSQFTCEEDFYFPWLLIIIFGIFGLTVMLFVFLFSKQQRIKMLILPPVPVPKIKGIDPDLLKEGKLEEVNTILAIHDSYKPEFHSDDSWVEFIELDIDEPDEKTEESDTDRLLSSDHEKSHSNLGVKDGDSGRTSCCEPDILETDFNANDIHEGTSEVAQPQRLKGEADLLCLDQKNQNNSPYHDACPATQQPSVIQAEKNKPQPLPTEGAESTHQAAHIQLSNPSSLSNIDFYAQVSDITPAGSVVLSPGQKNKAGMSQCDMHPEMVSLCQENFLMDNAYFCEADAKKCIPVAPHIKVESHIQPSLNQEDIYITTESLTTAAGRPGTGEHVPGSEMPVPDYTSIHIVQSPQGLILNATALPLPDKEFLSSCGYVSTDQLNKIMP

[5] = biological target: T4, mouse GHR (mouse (endogenous in L fibroblasts)) (UniProt P16882)
T4 sequence: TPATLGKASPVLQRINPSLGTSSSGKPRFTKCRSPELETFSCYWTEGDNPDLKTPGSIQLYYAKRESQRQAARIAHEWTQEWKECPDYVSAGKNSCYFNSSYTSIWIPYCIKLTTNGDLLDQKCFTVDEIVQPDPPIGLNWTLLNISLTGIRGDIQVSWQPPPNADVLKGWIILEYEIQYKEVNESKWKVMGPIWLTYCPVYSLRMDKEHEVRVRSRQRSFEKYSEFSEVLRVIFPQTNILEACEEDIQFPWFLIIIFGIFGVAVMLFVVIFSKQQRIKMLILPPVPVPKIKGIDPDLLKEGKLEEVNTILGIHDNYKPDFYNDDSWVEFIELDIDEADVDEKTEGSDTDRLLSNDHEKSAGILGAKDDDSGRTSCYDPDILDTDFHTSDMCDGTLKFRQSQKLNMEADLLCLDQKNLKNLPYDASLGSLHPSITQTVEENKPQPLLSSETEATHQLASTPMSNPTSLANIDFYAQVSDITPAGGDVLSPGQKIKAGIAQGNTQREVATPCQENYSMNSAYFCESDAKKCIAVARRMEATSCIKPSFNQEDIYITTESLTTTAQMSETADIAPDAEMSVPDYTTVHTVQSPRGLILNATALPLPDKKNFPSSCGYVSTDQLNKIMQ

[6] = biological target: human growth hormone receptor (human (endogenous in SK-MEL-28, MALME-3M, IM9)) (UniProt P10912); remark: listed apart in the source

In the case of pegvisomant [reference compound], the “protein remaining intact after 48 h in human serum” value [1] is reported as 76%, the “time to full degradation by trypsin” value [2] is reported as 4 h and the “suppression of hGH-mediated phosphorylation of STAT5” value (hPRLR) is reported as 27%.

In the case of Ac-YIPKEQKYSFLQNPQT-NH2 [S1H peptide (site 1-binding helix)], the inhibition of hPRL-induced pSTAT5 (Western blot) in MALME-3M cells treated with 2.5 nM hPRL and S1H; pair blocked: hPRL with hPRLR [3] is reported as 49%, the inhibition of hGH-induced pSTAT5 (Western blot) in MALME-3M cells treated with 2.5 nM hGH and 50 nM S1H; pair blocked: hGH with hGHR [4] is reported as 40% and the suppression of hGH-mediated pSTAT5 (Western blot) in mouse L fibroblasts co-treated with GH and 200 nM S1H; pair blocked: GH with the GHR of the L cells [5] is reported as 36%. It also gave a suppression of hGH-mediated pSTAT5 (Western blot) in IM9 cells co-treated with 2.5 nM hGH and 200 nM S1H; pair blocked: hGH with hGHR [6] of 67%, a suppression of hGH-mediated pSTAT5 (Western blot) in MALME-3M cells co-treated with 2.5 nM hGH and 200 nM S1H; pair blocked: hGH with hGHR [6] of 56% and a suppression of hGH-mediated pSTAT5 (Western blot) in SK-MEL-28 cells co-treated with 2.5 nM hGH and S1H, 100 nM (46%) to 200 nM (67%); pair blocked: hGH with hGHR [6] of 67%.
